Laboratory results as given in patent publication US6429297B1, “Modified avidin and streptavidin and methods of use thereof” (University of Rochester, priority 1995, dated 2002).
Where two headings read alike, the source gives them in different places.

Assays:
[1] = blood clearance of ^131I-labelled modified SA and Avid in rabbits; settings: rabbit, ^131I label, over 2 hours
Method: (§1) The blood clearance kinetics of the compounds of the present invention can be assessed by in vivo assays. The modified Avid and SA compounds are detectably labeled, for example by radiolabeling, injected into animals, and blood clearance is then determined by biodistribution analysis of radiolabeled samples. For example, the compounds of the present invention can be radiolabeled with ^131I by the Pierce lodobead method (Pierce, Rodeford, Ill.) and separated from free iodine for example by ultrafiltration using CENTRICON-30 filters. Experimental animals, for example, rabbits weighing about 3 kilograms, are fasted, anesthetized, and an external jugular vein is dissected and catheterized for injection and collection of blood samples. A radiolabeled compound of the present invention is injected. Whole blood samples are taken at various time intervals for about two hours. By comparing the blood clearance of galactose-modified SA with native SA, and Avid-E, the skilled artisan can determine the extent of modification that results in optimal blood clearance.
(§2) SA and Avid, 0.5 mg, were radiolabeled with starting activities of ˜0.3 mCi ^131I and ˜0.1 mCi ^131I, respectively.
(§3) Biodistribution was determined in vivo. New Zealand White rabbits, ˜3 kg, (n=3 per experiment) were fasted for 12 hours prior to the experiment and anesthetized using an intramuscular injection of chlorpromazine (25 mg/kg) followed by intravenous sodium pentobarbital (15 mg/kg). An external jugular vein was dissected and catheterized using a 5 French straight catheter for injection and collection of whole blood. The animal was placed in a supine position under the gamma camera for imaging and was then injected with [75 μg] of the radiolabeled proteins prepared above. Whole blood samples (2-3 ml) were taken at intervals for 2 hours. Planar gamma camera images (30K count acquisition) were taken at 5, 30, 60 and 120 minutes. At two hours, animals were euthanized. Major organs were removed, weighed and representative samples taken for biodistribution analysis. Blood volume was estimated to be 6% of total body weight.

[2] = biodistribution and gamma camera imaging of ^131I-labelled modified SA and Avid in rabbits; settings: rabbit; for kidney accumulation (biodistribution) / liver accumulation (biodistribution): 2 hours after injection; for planar gamma camera images, location of activity: images at 5, 30 and 120 minutes
Method: as §2, §3

[3] = DACB (biotin chelate) saturation / biotin binding assay
Method: The ability of the compounds of the present invention to bind to biotin can be assessed by in vitro assays known to one of ordinary skill in the art. For example, the compounds of the present invention are incubated with a molar excess of radiolabeled biotin under conditions sufficient for avidin-biotin or streptavidin-biotin binding. Biotin bound to the tested compound is separated from unbound biotin, for example by filtration. The bound biotin/modified Avid or SA ratio is determined by dividing the activity in the retentate by the specific activity of the radiolabeled biotin. The binding ratios for each modified Avid or SA compound are determined by dividing the bound moles of biotin by the moles of each compound.
In a preferred embodiment, the radiolabeled biotin is the biotin chelate deferoxamineacetylcysteinylbiotin (DACB) labeled with ^67Ga. DACB is known in the art and described for example by Rosebrough et al (1993) J. Pharm. Exp. Therap. 265:408 and in U.S. Pat. No. 5,326,778. DACB can be radiolabeled by direct addition of carrier free ^67Ga citrate (DuPont Merck Pharmaceutical Co., Billerica, Mass.). Samples of Avid, SA, modified Avid, and modified SA are incubated with a 20/1 molar excess of ^67Ga-DACB on CENTRICON-30 filters (Amicon, Beverly, Mass.) in 0.05M Tris/0.15M NaCl, pH 7.5. After two washings, the bound DACB/protein ratio is determined by dividing the bound activity in the retentate by the specific activity of ^67Ga-DACB. The binding ratio for each compound is determined by dividing the bound moles of DACB by the moles of streptavidin. […]
The purified DACB was then used to access the ability of the compounds prepared in accordance with Examples I-III to bind to biotin. […] After 2 washings, the bound DACB/protein ratio was determined by dividing the bound activity in the retentate by the specific activity of ^67Ga DACB (˜2×10^16 cpm/mole). The binding ratios for each sample were determined by dividing the bound moles of DACB by the moles of each protein. […]

[4] = set-up: species or system rabbits; settings: rabbit, in vivo, 0.12 mg
Method: 0.3 mg of SA-Tgal or SA-pTgal were-added to a microcentrifuge tube containing ˜0.5 mCi of I-131. Three Iodobeads were added and then mixed and incubated for 12 minutes at room temperature. Free I-131 was removed by ultrafiltration using centricon-30 filters. SA-Tgal and SA-pTgal concentration was determined spectrophotometrically. (E^1%280 nm=34)
0.12 mg of I-131 SA-Tgal and I-131 SA-pTgal were injected into rabbits for two hours. […] The liver accumulation for SA-Tgal was 90% compared to 16% for SA-pTgal.

[5] = rabbit, in vivo
Method: as §1, §2, §3

[6] = rabbit, in vivo; remark: listed apart in the source
Method: as §2, §3

| Substance | blood clearance (in words) [1] | kidney accumulation (biodistribution) [2] | liver accumulation (biodistribution) [2] | planar gamma camera images, location of activity [2] | DACB saturation analysis ([3]; sample made at NHS-Ac/Avid molar ratio 10) | DACB saturation analysis ([3]; sample made at NHS-Ac/Avid molar ratio 25) | blood clearance (in words) [4] | percent of injected dose circulating in the blood at 2 hours [5] | DACB binding ratio (bound moles DACB per mole protein) ([3]; 20/1 molar excess ^67Ga DACB, pH 7.5) | planar gamma camera images, location of activity [6] |
| --- | --- | --- | --- | --- | --- | --- | --- | --- | --- | --- |
| Avid-E/N: avidin both neutralized and deglycosylated | substantially prolonged | low levels in both the kidney and liver | low levels in both the kidney and liver | circulatory activity with a corresponding decrease in liver and kidney activity |  |  |  |  |  |  |
| Avid-N: avidin neutralized by acetylation of its lysine amino acids | cleared slower than native Avid | decreased considerably | high liver accumulation | dramatic reduction in kidney activity and a corresponding increase in liver activity | approximated the binding of DACB to native avidin | approximated the binding of DACB to native avidin |  |  |  |  |
| SA-pTgal: acetylated Tgal modified streptavidin |  |  |  |  |  |  | much slower than that of the SA-Tgal |  |  |  |
| avidin [reference compound] | cleared quickly | accumulated mostly in the liver and kidney | accumulated mostly in the liver and kidney | exclusively in the liver and kidneys |  |  |  |  |  |  |
| streptavidin [SA] |  |  |  |  |  |  |  | greater than 50% | 3.6 | vascular activity as indicated by systemic circulation and cardiac activity |
